From US20260234258A1 (REPERTOIRE IMMUNE MEDICINES, published 2026) come the findings set out here.

The target of assay [1] is T1, mouse CD8 (on CD8 T cells of mouse splenocytes) (mouse, UniProt P01731 28-247). The experiment in a line: cell-based or functional assay.
In assay [2] the target is T1, mouse CD8 (on CD8 T cells of mouse …). The experiment in a line: flow cytometry on mouse splenocytes, CD8 T cells; IL2 loading detected with anti-IL2; median fluorescence intensity. On the procedure: (§1) Anti-mouse CD8-human IL2 molecules were evaluated for their ability to specifically bind and load IL2 on CD8 T cells. Briefly, 1×10⁵ mouse splenocytes were incubated with indicated CD8-IL2 (human FC receptor) molecules from one of the concentrations ranging from 0.05 pM to 500 nM. Anti-mouse CD8 antibody was used as control. Following one hour incubation with molecules, splenocytes were washed twice with RPMI complete medium and once with PBS. The washed splenocytes were stained with anti-TL2 (MQ1-17H12), anti-human kappa (MHK-49) and lineage surface makers CD4(RM4-4), NK1.1(PK136) and CD19(6D5) for 20 minutes, after which the cells were washed and analyzed using flow cytometer. Mean fluorescence intensity data was analyzed using four parameter nonlinear regression method to calculated binding affinity in GraphPad prism.
A general note: A flow cytometer gives signals particle by particle.

The target is the same in assay [3]. The experiment in a line: flow cytometry on mouse splenocytes, gated cell types; IL2 loading detected with anti-IL2; median fluorescence intensity. On the procedure:
as §1

The target is the same in assay [4]. The assay can be described thus: flow cytometry on mouse splenocytes, CD8 T cells; bound molecule detected with anti-human kappa; median fluorescence intensity. On the procedure: as §1
The target of assay [5] is T2, human CD8 (on CD8 T cells of human PBMC) (human, UniProt P01732 22-235). The assay can be described thus: cell-based or functional assay.
T2 sequence (P01732 22-235 limits assumed): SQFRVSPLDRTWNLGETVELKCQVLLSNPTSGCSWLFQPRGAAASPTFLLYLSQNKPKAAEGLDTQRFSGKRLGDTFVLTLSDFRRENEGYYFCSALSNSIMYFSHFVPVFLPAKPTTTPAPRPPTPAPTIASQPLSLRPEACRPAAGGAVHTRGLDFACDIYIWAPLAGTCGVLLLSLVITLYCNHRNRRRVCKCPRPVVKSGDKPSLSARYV
Assay [6] deals with T2, human CD8 (on CD8 T cells of human PBMC). The assay can be described thus: cell-based or functional assay. The source holds these as a separate data set.
Assay [7] has the same target. The assay can be described thus: flow cytometry on human PBMC, gated cell types; IL2 loading detected with anti-IL2; MFI. On the procedure:
(§2) Anti-human CD8-human IL2 molecules were evaluated for their ability to specifically bind and load IL2 on CD8 T cells. Briefly, […] human PBMC were co-cultured with indicated CD8-IL2 (human FC receptor) molecules from one of the concentrations ranging from 0.05 pM to 0.4 nM. Following one hour incubation with molecules, PBMC were washed twice with RPMI complete medium and washed once with PBS. The washed cells were stained with anti-IL2 (MQ1-17H12), anti-human kappa (MHK-49) and lineage surface markers CD3(UCHT1), CD4(SK3) and NK(HCD56) for 20 minutes, after which the cells were washed and analyzed using a flow cytometer. The binding affinity was quantified and represented as mean fluorescence intensity (MFI).

Assay [8] has the same target. The assay can be described thus: flow cytometry on human PBMC, CD8 T cells; bound molecule detected with anti-human kappa; MFI. On the procedure: as §2

T1 sequence (P01731 28-247): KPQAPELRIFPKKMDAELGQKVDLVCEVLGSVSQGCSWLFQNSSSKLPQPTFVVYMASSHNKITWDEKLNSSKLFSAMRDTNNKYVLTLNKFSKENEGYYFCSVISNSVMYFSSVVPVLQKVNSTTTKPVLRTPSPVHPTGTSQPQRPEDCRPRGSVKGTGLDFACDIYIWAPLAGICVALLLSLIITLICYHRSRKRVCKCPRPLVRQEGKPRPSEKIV

B1: mCD8 Fab Fc IL2 (LC) (YTS105) (antibody, human IgG1, kappa, L234A L235A, N297A)
heavy: EVQLKESGPGLVQPSQTLSLTCTVSGFSLTSNSVHWVRQPPGKGLEWMGGIWGDGDTDYNSALKSRLSISRDTSKNQVFLKMNSLQTDDTAIYFCTPLIGSWYFDFWGPGTMVTASSASTKGPSVFPLAPSSKSTSGGTAALGCLVKDYFPEPVTVSWNSGALTSGVHTFPAVLQSSGLYSLSSVVTVPSSSLGTQTYICNVNHKPSNTKVDKKVEPKSCDKTHTCPPCPAPEAAGGPSVFLFPPKPKDTLMISRTPEVTCVVVDVSHEDPEVKFNWYVDGVEVHNAKTKPREEQYASTYRVVSVLTVLHQDWLNGKEYKCKVSNKALGAPIEKTISKAKGQPREPQVYTLPPSRDELTKNQVSLWCLVKGFYPSDIAVEWESNGQPENNYKTTPPVLDSDGSFFLYSKLTVDKSRWQQGNVFSCSVMHEALHNHYTQKSLSLSPGK
chain: DKTHTCPPCPAPEAAGGPSVFLFPPKPKDTLMISRTPEVTCVVVDVSHEDPEVKFNWYVDGVEVHNAKTKPREEQYASTYRVVSVLTVLHQDWLNGKEYKCKVSNKALGAPIEKTISKAKGQPREPQVYTLPPSRDELTKNQVSLSCAVKGFYPSDIAVEWESNGQPENNYKTTPPVLDSDGSFFLVSKLTVDKSRWQQGNVFSCSVMHEALHNHYTQKSLSLSPGK
light: not shown
notes: One-armed Fab-Fc (clone YTS105) with human IL-2 on the C-terminus of the light chain; also called mCD8 Fc-IL2(LC); CD8Fc-IL2
The term EC50 (read off the curve) denotes the concentration needed to bring the measured effect to its halfway point. For B1, the “Percentage of CD8 T Cell expansion at 32 pm” value (shortened to “Percentage … at 32 pm”) in assay [1] was 56.1%. Moreover, the “Percentage of CD8 T Cell expansion at 160 pm” value (shortened to “Percentage … at 160 pm”) in assay [1] came out at 60.6%. Further, the “EC50 (read off the curve)” value in assay [2] was approximately 0.8 nM; in assay [3] it was approximately 0.4 nM; in assay [4] it was approximately 0.7 nM.

B2: mCD8 IgG IL2 (HC) (YTS105) (antibody)
heavy: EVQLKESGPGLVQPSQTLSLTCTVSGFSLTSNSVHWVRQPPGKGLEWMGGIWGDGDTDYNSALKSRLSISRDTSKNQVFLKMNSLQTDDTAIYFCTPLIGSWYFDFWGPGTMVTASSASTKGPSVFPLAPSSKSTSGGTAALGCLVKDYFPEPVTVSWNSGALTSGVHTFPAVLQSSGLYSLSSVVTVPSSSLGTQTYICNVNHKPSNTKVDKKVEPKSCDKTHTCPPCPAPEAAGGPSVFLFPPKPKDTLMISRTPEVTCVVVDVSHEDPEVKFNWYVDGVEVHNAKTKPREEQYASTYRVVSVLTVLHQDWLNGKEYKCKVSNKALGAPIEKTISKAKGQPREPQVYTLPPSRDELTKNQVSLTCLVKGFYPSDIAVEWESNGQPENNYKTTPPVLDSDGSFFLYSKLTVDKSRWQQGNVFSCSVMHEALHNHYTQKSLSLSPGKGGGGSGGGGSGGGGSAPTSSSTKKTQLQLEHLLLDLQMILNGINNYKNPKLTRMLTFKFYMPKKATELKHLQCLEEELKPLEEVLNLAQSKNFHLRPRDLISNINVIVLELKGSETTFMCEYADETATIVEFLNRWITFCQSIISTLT
light: DIVMTQSPSSLAVSAGERVTLNCKASQNVRNNIAWYQQKPGQSPKLLIYYASYRYTGVPDRFTGDGFGTDFTLAINSVQADDAAFYYCQRIYNSPYTFGAGTKLELIRTVAAPSVFIFPPSDEQLKSGTASVVCLLNNFYPREAKVQWKVDNALQSGNSQESVTEQDSKDSTYSLSSTLTLSKADYEKHKVYACEVTHQGLSSPVTKSFNRGEC
notes: Anti-mouse CD8 IgG (clone YTS105) with human IL-2 on the C-terminus of each heavy chain
For the molecule B2, in assay [1], the “Percentage … at 32 pm” value was 46.5%. Besides, the “Percentage … at 160 pm” value in assay [1] stood at 63.2%. Besides, the “EC50 (read off the curve)” value in assay [2] is approximately 0.05 nM; in assay [3] it was approximately 0.05 nM; in assay [4] it was approximately 0.04 nM.

B3: mCD8IgG (anti-mouse CD8 antibody control, clone YTS105) (antibody, not shown: a dimerising Fc or GST)
heavy: EVQLKESGPGLVQPSQTLSLTCTVSGFSLTSNSVHWVRQPPGKGLEWMGGIWGDGDTDYNSALKSRLSISRDTSKNQVFLKMNSLQTDDTAIYFCTPLIGSWYFDFWGPGTMVTASSASTKGPSVFPLAPSSKSTSGGTAALGCLVKDYFPEPVTVSWNSGALTSGVHTFPAVLQSSGLYSLSSVVTVPSSSLGTQTYICNVNHKPSNTKVDKKVEPKSC
light: DIVMTQSPSSLAVSAGERVTLNCKASQNVRNNIAWYQQKPGQSPKLLIYYASYRYTGVPDRFTGDGFGTDFTLAINSVQADDAAFYYCQRIYNSPYTFGAGTKLELIRTVAAPSVFIFPPSDEQLKSGTASVVCLLNNFYPREAKVQWKVDNALQSGNSQESVTEQDSKDSTYSLSSTLTLSKADYEKHKVYACEVTHQGLSSPVTKSFNRGEC
notes: Control without IL-2
Regarding B3, the “EC50 (read off the curve)” value in assay [4] is approximately 0.04 nM.

B4: mCD8 Fab IL2 (LC) (YTS105) (Fab)
heavy: EVQLKESGPGLVQPSQTLSLTCTVSGFSLTSNSVHWVRQPPGKGLEWMGGIWGDGDTDYNSALKSRLSISRDTSKNQVFLKMNSLQTDDTAIYFCTPLIGSWYFDFWGPGTMVTASSASTKGPSVFPLAPSSKSTSGGTAALGCLVKDYFPEPVTVSWNSGALTSGVHTFPAVLQSSGLYSLSSVVTVPSSSLGTQTYICNVNHKPSNTKVDKKVEPKSC
light: not shown
notes: Anti-mouse CD8 Fab (clone YTS105) with human IL-2 fused to the C-terminus of the light chain
Take B4: the “Percentage … at 32 pm” value in assay [1] came out at 56.4%. Besides, the “Percentage … at 160 pm” value in assay [1] is 59.7%. Besides, the “EC50 (read off the curve)” value is approximately 0.6 nM in assay [2], approximately 0.3 nM in assay [3] and approximately 0.5 nM in assay [4].

B5: hCD8 IgG IL2 1x (HC) (VH6/VK3) (antibody)
heavy 1: not shown
heavy 2: EVQLVQSGAEVKKPGATVKISCKASGYTFTDFTMHWVQQAPGKGLEWIGLVNPNNGGNIYAEKFQGRVTLTVDTSTSTAYMELSSLRSEDTAVYYCGRVPLYTSHGMDYWGQGTLVTVSSASTKGPSVFPLAPSSKSTSGGTAALGCLVKDYFPEPVTVSWNSGALTSGVHTFPAVLQSSGLYSLSSVVTVPSSSLGTQTYICNVNHKPSNTKVDKKVEPKSCDKTHTCPPCPAPEAAGGPSVFLFPPKPKDTLMISRTPEVTCVVVDVSHEDPEVKFNWYVDGVEVHNAKTKPREEQYASTYRVVSVLTVLHQDWLNGKEYKCKVSNKALGAPIEKTISKAKGQPREPQVYTLPPSRDELTKNQVSLSCAVKGFYPSDIAVEWESNGQPENNYKTTPPVLDSDGSFFLVSKLTVDKSRWQQGNVFSCSVMHEALHNHYTQKSLSLSPGK
light: EIVLTQSPATLSLSPGERATISCRASESVDSYDINSMHWYQQKPGQAPRLLIYRASHLQSGIPARFSGSGSRTDFTLTISSLEPEDFATYYCQQSNEDPLTFGQGTKLEIKRTVAAPSVFIFPPSDEQLKSGTASVVCLLNNFYPREAKVQWKVDNALQSGNSQESVTEQDSKDSTYSLSSTLTLSKADYEKHKVYACEVTHQGLSSPVTKSFNRGEC
notes: Humanized 02A01 (VH6/VK3) anti-human CD8 IgG, knob-in-hole, one human IL-2 on the C-terminus of the knob heavy chain; also called hCD8 IgG IL2 1×(HC)
As to B5, in assay [5], the “EC50 pSTAT5 Activation, CD8+ T cells” value is 0.448 pM. Moreover, the “EC50 of Proliferation (percentage Ki67), CD8+ T cells” value in assay [6] amounted to 0.0689 nM. The 50% effective concentration (EC50 (read off the curve)) in assay [7] and in assay [8] was approximately 0.03 nM in each case.
